# Experimental data reported in US7265263B1, “Potato transcription factors, methods of use thereof, and a method for enhancing tuber development” (Iowa State University Research Foundation, Inc., priority 2002, dated 2007).
# T1: StBEL-05 protein from pGEM11Z (in vitro transcription/translation) (Solanum tuberosum)
# T1 construct: 35S-methionine labelled prey; also called p11Z-5
# T1 chain: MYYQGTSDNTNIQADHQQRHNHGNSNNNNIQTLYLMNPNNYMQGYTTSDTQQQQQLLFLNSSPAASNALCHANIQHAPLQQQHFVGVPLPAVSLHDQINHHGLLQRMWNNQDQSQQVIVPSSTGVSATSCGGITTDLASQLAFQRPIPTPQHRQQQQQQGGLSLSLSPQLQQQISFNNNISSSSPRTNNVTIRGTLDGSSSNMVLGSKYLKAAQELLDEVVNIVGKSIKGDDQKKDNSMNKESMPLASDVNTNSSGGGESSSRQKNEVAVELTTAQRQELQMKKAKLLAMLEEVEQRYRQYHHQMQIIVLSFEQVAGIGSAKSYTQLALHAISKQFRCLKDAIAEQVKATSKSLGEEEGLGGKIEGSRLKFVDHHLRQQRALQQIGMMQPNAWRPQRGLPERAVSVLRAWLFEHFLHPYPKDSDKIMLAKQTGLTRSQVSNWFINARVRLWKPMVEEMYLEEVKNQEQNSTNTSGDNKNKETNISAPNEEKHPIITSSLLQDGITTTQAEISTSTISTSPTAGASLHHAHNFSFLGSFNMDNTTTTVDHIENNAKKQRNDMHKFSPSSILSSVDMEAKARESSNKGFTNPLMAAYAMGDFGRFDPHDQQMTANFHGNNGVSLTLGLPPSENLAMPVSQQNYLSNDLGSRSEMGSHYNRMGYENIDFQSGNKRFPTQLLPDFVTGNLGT
# T2: GAD protein alone (UniProt P04386 768-881, limits assumed)
# T2 construct: Control of the immunoprecipitation
# T2 sequence (looked up): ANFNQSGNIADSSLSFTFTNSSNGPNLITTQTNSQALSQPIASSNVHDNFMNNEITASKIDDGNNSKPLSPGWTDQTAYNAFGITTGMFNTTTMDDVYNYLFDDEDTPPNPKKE
# T3: GAD:POTH1 fusion protein (Solanum tuberosum)
# T3 construct: 35S-methionine labelled, made by in vitro transcription/translation for the immunoprecipitation; also called POTH1:GAD
# T3 chain: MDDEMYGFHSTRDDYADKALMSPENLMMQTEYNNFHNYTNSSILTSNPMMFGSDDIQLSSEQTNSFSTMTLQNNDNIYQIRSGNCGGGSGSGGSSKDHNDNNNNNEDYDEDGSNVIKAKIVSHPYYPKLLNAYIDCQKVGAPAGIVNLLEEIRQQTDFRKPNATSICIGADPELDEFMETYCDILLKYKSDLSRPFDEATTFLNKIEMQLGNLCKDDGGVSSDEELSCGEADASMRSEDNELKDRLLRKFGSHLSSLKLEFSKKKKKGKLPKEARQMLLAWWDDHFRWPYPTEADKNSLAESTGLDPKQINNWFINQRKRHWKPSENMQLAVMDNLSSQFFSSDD
# B1: pBHD9 construct as used in the in vitro binding protocol (other)
# chain: MDDEMYGFHSTRDDYADKALMSPENLMMQTEYNNFHNYTNSSILTSNPMMFGSDDIQLSSEQTNSFSTMTLQNNDNIYQIRSGNCGGGSGSGGSSKDHNDNNNNNEDYDEDGSN
# B2: pAD5-1 (StBEL-05 deletion construct in pGAD) (other, not shown: small tags and cut ends)
# chain: KNEVAVELTTAQRQELQMKKAKLLAMLEEVEQRYRQYHHQMQIIVLSFEQVAGIGSAKSYTQLALHAISKQFRCLKDAIAEQVKATSKSLGEEEGLGGKIEGSRLKFVDHHLRQQRALQQIGMMQPNAWRPQRGLPERAVSVLRAWLFEHFLHPYPKDSDKIMLAKQTGLTRSQVSNWFINARVRLWKPMVEEMYLEEVKNQEQNSTNTSGDNKNKETNISAPNEEKHPIITSSLLQDGITTTQAEISTSTISTSPTAGASLHHAHNFSFLGSFNMDNTTTTVDHIENNAKKQRNDMHKFSPSSILSSVDMEAKARESSNKGFTNPLMAAYAMGDFGRFDPHDQQMTANFHGNNGVSLTLGLPPSENLAMPVSQQNYLSNDLGSRSEMGSHYNRMGYENIDFQSGNKRFPTQLLPDFVTGNLGT
# notes: Lacks the SKY box; residues converted from pAD-05 numbering
# B3: StBEL-30 protein from pGEM11Z (in vitro transcription/translation) (other)
# chain: MATYFPSPNNQRDADQTFQYFRQSLPESYSEASNAPENMMVFMNYSSSGAYSDMLTGTSQQQHNCIDIPSIGATPFNTSQQEILSNLGGSQMGIQDFSSWRDSRNEMLADNVFQVAQNVQGQGLSLSLGSNIPSGIGISHVQSQNPNQGGGFNMSFGDGDNSQPKEQRNADYFPPDNPGRDLDAMKGYNSPYGTSSIARTIPSSKYLKAAQYLLDEVVSVRKAIKEQNSKKELTKDSRESDVDSKNISSDTPANGGSNPHESKNNQSELSPTEKQEVQNKLAKLLSMLDEIDRRYRQYYHQMQIVVSSFDVVAGEGAAKPYTALALQTISRHFRCLRDAICDQIRASRRSLGEQDASENSKAIGISRLRFVDHHIRQQRALQQLGMMQQHAWRPQRGLPESSVSVLRAWLFEHFLHPYPKDSDKIMLARQTGLTRSQVSNWFINARVRLWKPMVEEMYKEEAGDAKIDSNSSSDVAPRLATKDSKVEERGELHQNAASEFEQYNSGQILESKSNHEADVEMEGASNAETQSQSGMENQTGEPLPAMDNCTLFQDAFVQSNDRFSEFGSFGSGNVLPNGVSLTLGLQQGEGSNLPMSIETHVSYVPLRADDMYSTAPTTMVPETAEFNCLDSGNRQQPFWLLPSAT
# notes: 35S-methionine labelled prey; also called p11Z-30
# B4: StBEL-13 protein from pGEM11Z (in vitro transcription/translation) (other)
# chain: MVMGGGASSQQLGYAKNHTPNVAESMQLFLMNPQPRSPSPSPPNSTSSTLHMLLPNPSSTSTLQGFPNPAEGSFGQFITWGNGGASAATATHHLNAQNEIGGVNVVESQGLSLSLSSSLQHKAEELQMSGEAGGMMFFNQGGSSTSGQYRYKNLNMGGSGVSPNIHQVHVGYGSSLGVVNVLRNSKYAKAAQELLEEFCSVGRGKLKKTNNKAAANNPNTNPSGANNEASSKDVPTLSAADRIEHQRRKVKLLSMVDEVDRRYNHYCEQMQMVVNSFDLVMGFGTAVPYTALAQKAMSRHFRCLKDAIGAQLKQSCELLGEKDAGNSGLTKGETPRLKMLEQSLRQQRAFHQMGMMEQEAWRPQRGLPERSVNILRAWLFEHFLHPYPSDADKHLLARQTGLSRNQVSNWFINARVRLWKPMVEDMYQQEAKDEDGDGDEKSQSQNSGNNIIAQTPTPNSLTNTSSTNMTTTTAPTTTTALAAAETGTAATPITVTSSKRSQINATDSDPSLVAINSFSENQATFPTNIHDPDDCRRGNLSGDDGTTTHDHMGSTMIRFGTTAGDVSLTLGLRHAGNLPENTHFFG
# notes: 35S-methionine labelled prey; also called p11Z-13
# Legend:
# [1] = target: T1, StBEL-05 protein from pGEM11Z (in vitro …); test: in vitro binding protocol (pull-down)
# Experimental: (§1) In vitro binding experiments were performed as described by Ni et al., "PIF3, a Phytochrome-Interacting Factor Necessary for Normal Photoinduced Signal Transduction, is a Novel Basic *Helix*-Loop-Helix Protein," *Cell* 95:657-667 (1998), which is hereby incorporated by reference in its entirety. The full-length sequence for POTH1 was cloned into a pET17b/GAD fusion cassette and transcribed under the control of the T7 promoter. The BEL cDNAs were cloned into pGEM11Z vectors and were transcribed under the control of the T7 promoter. ^35S-methionine labeled bait and prey proteins were synthesized using the TnT in vitro transcription-translation kit (Promega) according to the manufacturer's protocols. Each 50 μl TnT reaction contained 2.0 μg of template plasmid DNA and 20 μmol (20 μCi) of labeled ^35S-methionine. The POTH1:GAD/BEL complex was immunoprecipitated with anti-GAD antibodies (Santa Cruz Biotechnology, Calif.). The proteins from the pellet (one-half the fraction) and for the prey (one-fourth of the reaction volume) were resolved on a 10% SDS-PAGE gel and visualized by autoradiography.
# [2] = target: T4, POTH1 in pBridge (full-length POTH1 fused with the GAL4 DNA-binding domain) (Solanum tuberosum); test: quantitative yeast two-hybrid beta-galactosidase assay
# T4 construct: Bait of the yeast two-hybrid screen and partner of the StBEL-05 deletion constructs; also called pBHD; pBridge:POTH1
# Description: (§2) The Matchmaker two-hybrid system (Clontech, Calif.) was used for the yeast two-hybrid screen. Yeast transformation and plasmid rescue into DH5-α *E. coli* cells were according to the manufacturer's instructions. Full-length POTH1 was cloned into the pBridge (Clontech, Calif.) vector and used as bait to screen the potato (*S. tuberosum* 'Desireé') stolon cDNA library in pAD-GAL4-2.1 (Stratagene, Calif.). Positive interactions were confirmed by cotransforming yeast strain AH109 with each purified pAD plasmid and pBridge: POTH1 and plating on -leucine/-tryptophan (transformation control) and -leucine/-tryptophan/-histidine/-adenine (selection) nutrient medium. Induction of the AH109 reporter gene, lacZ, was measured with a yeast β-galactosidase assay kit (Pierce Chemicals). β-galactosidase activity (FIG. 9B) was determined from a known density of yeast cells and calculated as 1000 ×OD420/time of color reaction (minutes)×volume of yeast culture (ml)×$OD600$.
# The StBEL-05 deletion constructs were amplified by PCR, then cloned into the vector, pGAD, in-frame with the GAL4 activation domain. POTH1 deletion constructs were amplified by PCR, and cloned into pBridge (Clontech) in-frame with the GAL4 binding domain. Sequencing of selected cDNAs and constructs was performed at the Iowa State University DNA Facility. […]
# POTH1 [3] = test: Yeast two-hybrid interaction with POTH1; type: binding, Solanum tuberosum; settings: nutritional selection and lacZ activation, yeast AH109
# Description: as §2, with “E. coli” for “*E. coli*”, “(S. tuberosum ‘Desireé’)” for “(*S. tuberosum* 'Desireé')”, “1000×OD420/time” for “1000 ×OD420/time”, “(ml)×OD600.” for “(ml)×$OD600$.”
# The StBEL-05 deletion constructs were amplified by PCR, then cloned into the vector, pGAD, in-frame with the GAL4 activation domain. POTH1 deletion constructs were amplified by PCR, and cloned into pBridge (Clontech) in-frame with the GAL4 binding domain. Sequencing of selected cDNAs and constructs was performed at the Iowa State University DNA Facility. For deletion analysis, modified constructs of POTH1 were cloned into the pBridge vector for fusion with the DNA-binding domain of GAL4 (FIG. 10A). For StBEL-05, constructs were cloned into the pGAD vector for fusion with the activating domain of GAL4 (FIG. 10B). Deletion constructs were made from both the amino and carboxy termini. These mutants were then tested for interaction in the yeast two-hybrid system by cotransforming into yeast strain AH109 with the corresponding full-length partner (StBEL-05 in pGAL4 or POTH1 in pBridge). All constructs were sequenced to verify that they were in-frame. Positive interactions were verified for lacZ induction by using a β-galactosidase assay (Pierce Chemical Company). For POTH1, seven deletion constructs were tested (FIG. 10A). For the BEL TFs, a fusion construct of StBEL-05 (653 aa of StBEL-05 sequence) and nine deletion constructs were tested (FIG. 10B).
# GAD protein alone = target: T2, GAD protein alone; test: in vitro translated 35S-labelled proteins, immunoprecipitation with anti-GAD antibodies
# Experimental: as §1
# GAD:POTH1 fusion protein [4] = target: T3, GAD:POTH1 fusion protein; test: in vitro translated 35S-labelled proteins, co-immunoprecipitation with anti-GAD antibodies, SDS-PAGE autoradiography
# Experimental: as §1
# POTH1 [5] = test: In vitro binding assay (immunoprecipitation) with POTH1; set-up: species or system Solanum tuberosum; settings: in vitro transcription/translation, anti-GAD
# Experimental: In vitro binding experiments were performed as described by Ni et al., “PIF3, a Phytochrome-Interacting Factor Necessary for Normal Photoinduced Signal Transduction, is a Novel Basic Helix-Loop-Helix Protein,” Cell 95:657-667 (1998), which is hereby incorporated by reference in its entirety. The full-length sequence for POTH1 was cloned into a pET17b/GAD fusion cassette and transcribed under the control of the T7 promoter. […] Each 50 μl TnT reaction contained 2.0 μg of template plasmid DNA and 20 μmol (20 μCi) of labeled ^35S-methionine. The POTH1:GAD/BEL complex was immunoprecipitated with anti-GAD antibodies (Santa Cruz Biotechnology, Calif.). The proteins from the pellet (one-half the fraction) and for the prey (one-fourth of the reaction volume) were resolved on a 10% SDS-PAGE gel and visualized by autoradiography.
# GAD:POTH1 fusion protein [6] = target: T3, GAD:POTH1 fusion protein; test: in vitro transcription/translation, immunoprecipitation assay
# Experimental: as §1
Molecule,binding result [1],"decrease in the induction of the lacZ marker (beta-galactosidase activity) relative to the full-length construct, StBEL-05 [2]",interaction with POTH1 (POTH1 [3]),binding result (GAD protein alone),binding result (GAD:POTH1 fusion protein [4]),pull-down by POTH1 in immunoprecipitation (POTH1 [5]),binding result (GAD:POTH1 fusion protein [6])
B1,no binding,–,–,–,–,–,–
B2,–,55%,–,–,–,–,–
B3,–,–,showed selective interaction,no binding,binds,pulled down,–
B4,–,–,showed selective interaction,no binding,–,pulled down,binds
